In US20150104459A1:

Tests used:
Conditions in all cases: remark: other sources report otherwise
[1] = target: recombinant soluble homotrimeric HA of A/Anhui/1/05 (H5N1) (Influenza A virus A/Anhui/1/2005 (H5N1)); assay: HA microarray, BCC supernatant
[2] = target: recombinant soluble homotrimeric HA of A/California/4/09 (H1N1) (Influenza A virus A/California/04/2009 (H1N1)); assay: HA microarray, BCC supernatant
[3] = target: recombinant soluble homotrimeric HA of A/Egypt/3300-NAMRU3/08 (H5N1) (Influenza A virus A/Egypt/3300-NAMRU3/2008 (H5N1)); assay: HA microarray, BCC supernatant
[4] = target: recombinant soluble homotrimeric HA of A/Hong Kong/2108/03 (H9N2) (Influenza A virus A/Hong Kong/2108/2003 (H9N2)); assay: HA microarray, BCC supernatant
[5] = target: recombinant soluble homotrimeric HA of A/Indonesia/5/05 (H5N1) (Influenza A virus A/Indonesia/5/2005 (H5N1)); assay: HA microarray, BCC supernatant
[6] = target: recombinant soluble homotrimeric HA of A/Japan/305/57 (H2N2) (Influenza A virus A/Japan/305/1957 (H2N2)); assay: HA microarray, BCC supernatant
[7] = target: recombinant soluble homotrimeric HA of A/Netherlands/219/03 (H7N7) (Influenza A virus A/Netherlands/219/03 (H7N7)); assay: HA microarray, BCC supernatant
[8] = target: recombinant soluble homotrimeric HA of A/Solomon Islands/3/06 (H1N1) (Influenza A virus A/Solomon Islands/3/2006 (H1N1)); assay: HA microarray, BCC supernatant
[9] = target: recombinant soluble homotrimeric HA of A/Wisconsin/67/05 (H3N2) (Influenza A virus A/Wisconsin/67/2005 (H3N2)); assay: HA microarray, BCC supernatant
[10] = target: recombinant soluble homotrimeric HA of A/chicken/Vietnam/NCVD-016/08 (H5N1) (Influenza A virus A/chicken/Vietnam/NCVD-016/2008 (H5N1)); assay: HA microarray, BCC supernatant
[11] = target: recombinant soluble homotrimeric HA of A/duck/Yangzhou/02/2005 (H8N4) (Influenza A virus A/duck/Yangzhou/02/2005 (H8N4)); assay: HA microarray, BCC supernatant
[12] = target: recombinant soluble homotrimeric HA of A/northern shoveler/California/HKWF115/2007 (H6N1) (Influenza A virus A/northern shoveler/California/HKWF115/2007 (H6N1)); assay: HA microarray, BCC supernatant
[13] = target: recombinant soluble homotrimeric HA, A/Anhui/1/05 (H5N1) (influenza A virus A/Anhui/1/2005 (H5N1)); assay: microarray, trimeric HA, transfection supernatant
[14] = target: recombinant soluble homotrimeric HA, A/Hong Kong/156/97 (H5N1) (influenza A virus A/Hong Kong/156/97 (H5N1)); assay: microarray, trimeric HA, transfection supernatant
[15] = target: recombinant soluble homotrimeric HA, A/Netherlands/219/03 (H7N7) (influenza A virus A/Netherlands/219/03 (H7N7)); assay: microarray, trimeric HA, transfection supernatant
[16] = target: recombinant soluble homotrimeric HA, A/chicken/Vietnam/NCVD-016/08 (H5N1) (influenza A virus A/chicken/Vietnam/NCVD-016/2008 (H5N1)); assay: microarray, trimeric HA, transfection supernatant
[17] = target: recombinant soluble homotrimeric HA, A/duck/Yangzhou/02/2005 (H8N4) (influenza A virus A/duck/Yangzhou/02/2005 (H8N4)); assay: microarray, trimeric HA, transfection supernatant
[18] = target: recombinant soluble homotrimeric HA, A/northern shoveler/California/HKWF115/2007 (H6N1) (influenza A virus A/northern shoveler/California/HKWF115/2007 (H6N1)); assay: microarray, trimeric HA, transfection supernatant
[19] = target: recombinant soluble homotrimeric HA of A/Vietnam/1203/04 (H5N1) (Influenza A virus A/Vietnam/1203/2004 (H5N1)); assay: HA microarray, BCC supernatant
[20] = target: recombinant soluble homotrimeric HA of A/swine/Ontario/01911-2/99 (H4N6) (Influenza A virus A/Swine/Ontario/01911-2/99 (H4N6)); assay: HA microarray, BCC supernatant

B1: TCN-540 (5060_F05) (antibody, V domains shown)
VH: QVQLVQSGGGVVQPGRSLRLSCAASGFTFSSYAMHWVRQAPGKGLEWVAIISYDGNDQYYTDSVKGRFTISRDSSKVYLQMHRLRPEDTAVYYCAKEFETSGYFHGSFDYWGQGILVTVSS
VL: QSALTQPASVSGSPGQSITISCTGTSSDVGGYNYVSWYQQHPGKAPKLLIYEVTNWPSGVSNRFSGSKSGNTASLTISGLQAEDEADYYCSSYAGSSTWVFGGGTRVTVL
In the case of B1, the Trimeric HA Binding RLU [1] is reported as 25 RLU, the Trimeric HA Binding RLU [2] is reported as 57 RLU and the Trimeric HA Binding RLU [3] is reported as 1970 RLU. The Trimeric HA Binding RLU [4] was 22 RLU, the Trimeric HA Binding RLU [5] was 31 RLU and the Trimeric HA Binding RLU [6] was 2970 RLU. The Trimeric HA Binding RLU [7] was 381 RLU, the Trimeric HA Binding RLU [8] was 64 RLU and the Trimeric HA Binding RLU [9] was 728 RLU. It also gave a Trimeric HA Binding RLU [10] of 70 RLU, a Trimeric HA Binding RLU [11] of 117 RLU and a Trimeric HA Binding RLU [12] of 131 RLU. For the same binder, the Trimeric HA Binding RLU [13] was 2190 RLU, the Trimeric HA Binding RLU [14] was 1550 RLU and the Trimeric HA Binding RLU [15] was 4390 RLU. It also gave a Trimeric HA Binding RLU [16] of 1510 RLU, a Trimeric HA Binding RLU [17] of 6080 RLU and a Trimeric HA Binding RLU [18] of 2460 RLU.

B2: TCN-546 (5089_L08) (antibody, V domains shown)
VH: QVQLQQWGAGLLKPSETLSLTCGVYGGSLSDYYWSWIRQPPGKGLEWIGEINHSGGTNYNPSLKRRVTISVDTSKKQFSLKMNSVTAADTAVYYCARGTDPDTEVYCRAGNCAAFDFWGQGTLVTVSS
VL: EIVLTQSPGTLSLSPGERATLSCRASHFVIGRAVAWYQQKPGQAPRLLIYGASSRATGIPDRFSGSGSGTDFTLTISRLETEDFAVFYCQHYGSSPRYAFGQGTKLEIK
For B2, the Trimeric HA Binding RLU [1] was 2040 RLU, the Trimeric HA Binding RLU [2] was 350 RLU and the Trimeric HA Binding RLU [4] was 13000 RLU. It also gave a Trimeric HA Binding RLU [5] of 18400 RLU, a Trimeric HA Binding RLU [6] of 520 RLU and a Trimeric HA Binding RLU [19] of 349 RLU. The Trimeric HA Binding RLU [9] was 30200 RLU, the Trimeric HA Binding RLU [10] was 421 RLU and the Trimeric HA Binding RLU [13] was 33300 RLU. The Trimeric HA Binding RLU [14] was 1240 RLU, the Trimeric HA Binding RLU [16] was 2940 RLU and the Trimeric HA Binding RLU [17] was 11400 RLU.

B3: TCN-558 (5248_H10b) (antibody, V domains shown)
VH: QVQLVQSGSEVKKPGTSVKVSCTASGSVFTNYGISWVRQAPGQGLEWMGGIIPLFGAAKYAQKFQGRVTITADESTKTVYMELSRLTSKDTAIYFCAKAPRVYEYYFDQWGQGTPVTVSS
VL: EIVMTQFPATLSVSPGERVTLSCRASQSVSNNLAWYQQKPGQPPRLLIYDASTRATGVPAKFSGTGSGTEFTLSISSLQSEDFAVYYCQQYHNWPPSYSFGLGTKLEIK
B3 gave a Trimeric HA Binding RLU [15] of 5840 RLU, a Trimeric HA Binding RLU [16] of 33400 RLU and a Trimeric HA Binding RLU [18] of 29400 RLU.

B4: TCN-527 (5086_C06) (antibody, V domains shown)
VH: QVQLQESGPGLVKPSETLSLNCAVSGGSISNYYWSWIRQPPGKGLEWIGYISYNGRPKYNPSLTSRVTISVDTSKDQFSLELRSVTAADTALYYCARETRFGELLSPYDAFEIWGQGTMVTVSS
VL: DIQMTQSPSSLSASVGDRVTMTCRASQNIRSYLNWYQQRPGTAPKLLIYAASTLHSGVPSRFSGGGSGTDFTLTINNLQPEDFASYYCQQSYDNPQTFGQGTKVEIK
With B4 the Trimeric HA Binding RLU [1] was 21400 RLU, the Trimeric HA Binding RLU [2] was 28000 RLU and the Trimeric HA Binding RLU [4] was 16000 RLU. The Trimeric HA Binding RLU [5] was 23800 RLU, the Trimeric HA Binding RLU [6] was 19300 RLU and the Trimeric HA Binding RLU [7] was 8890 RLU. It also gave a Trimeric HA Binding RLU [8] of 16500 RLU, a Trimeric HA Binding RLU [19] of 21300 RLU and a Trimeric HA Binding RLU [9] of 5720 RLU. For the same binder, the Trimeric HA Binding RLU [10] was 27000 RLU, the Trimeric HA Binding RLU [11] was 28800 RLU and the Trimeric HA Binding RLU [12] was 30300 RLU. For the same binder, the Trimeric HA Binding RLU [20] was 7690 RLU.

B5: TCN-543 (5081_G23) (antibody, V domains shown)
VH: QVHLVQSGAEVRKPGDSVKVSCKTSGYTFSTYPVAWVRQVPGQGLEWMGWISTYNGNTNFAQNFQGRVTLTTDTTTNTAYMEVRSLKFDDTAVYYCARVEGSYRDFWNNQNRFDPWGQGTLVTVSS
VL: SYVLTQPPSVSVAPGQTARISCGGSNIGGKSVHWYQQKPGQAPVLVVYDDSGRPSGIPERFSGSNSGDTATLTISRVEAGDEADYFCQVWDNFGGVFGTGTKVTVL
With B5 the Trimeric HA Binding RLU [2] was 13100 RLU, the Trimeric HA Binding RLU [7] was 661 RLU and the Trimeric HA Binding RLU [8] was 511 RLU. It also gave a Trimeric HA Binding RLU [9] of 1360 RLU, a Trimeric HA Binding RLU [14] of 1430 RLU and a Trimeric HA Binding RLU [15] of 12900 RLU. It also gave a Trimeric HA Binding RLU [16] of 5880 RLU and a Trimeric HA Binding RLU [17] of 13100 RLU.

B6: TCN-550 (5096_F06) (antibody, V domains shown)
VH: QVQLQESGPGLVKPSETLSLTCTVSGASINSHYWSWIRQPPGKGLEWIGYVYYSGSTTYNPSLKSRVTLSVDTSKNQFSLNLSSVTAADTAFYYCARHPYDVLTGSGDWFDPWGQGTLVTVSS
VL: SYVLTQAPSVSVAPGQTARITCGGNAIGSKKVHWYQHKAGQAPVLVVYDDTDRPSGIPERFSGSNSWSTATLTINRVEAGDEADYYCQVWDFTIDHVVFGGGTKLTVL
B6 gave a Trimeric HA Binding RLU [1] of 1210 RLU, a Trimeric HA Binding RLU [4] of 2280 RLU and a Trimeric HA Binding RLU [5] of 9100 RLU. The Trimeric HA Binding RLU [6] was 201 RLU, the Trimeric HA Binding RLU [8] was 204 RLU and the Trimeric HA Binding RLU [19] was 277 RLU. It also gave a Trimeric HA Binding RLU [9] of 26300 RLU, a Trimeric HA Binding RLU [10] of 361 RLU and a Trimeric HA Binding RLU [11] of 407 RLU. The Trimeric HA Binding RLU [14] was 955 RLU, the Trimeric HA Binding RLU [16] was 1800 RLU and the Trimeric HA Binding RLU [17] was 4710 RLU. For the same binder, the Trimeric HA Binding RLU [18] was 2300 RLU.

B7: TCN-521 (3280_D18) (antibody, V domains shown)
VH: EVQLVQSGGGLVQPGGSLRLACVVSGFTVTSNYITWVRQAPGKGLEWVSVIYSHGRAYYSASVNGRFTISRHTSKNTVYLEMNSLRPEDTAVYYCAGGGLVGGYDEYFFDYWGQGTLATVSS
VL: ETVLTQSPGTLSLTPGERATLSCRVGQSVSGSHLAWYQQKPGQAPRLLIYGASSRATGIPDRFGGSVSGTDFTLTISRLEPEDSAVYYCQQYGDSRYTFGQGTKLEIK
B7 gave a Trimeric HA Binding RLU [3] of 47900 RLU, a Trimeric HA Binding RLU [4] of 93 RLU and a Trimeric HA Binding RLU [5] of 31500 RLU. The Trimeric HA Binding RLU [6] was 6730 RLU, the Trimeric HA Binding RLU [8] was 39600 RLU and the Trimeric HA Binding RLU [10] was 32400 RLU. For the same binder, the Trimeric HA Binding RLU [12] was 48000 RLU.

B8: TCN-528 (5087_P17) (antibody, V domains shown)
VH: QVQLVQSGSEVKKPGASVKVSCKASGYTFTNYDINWIRQAPGQGLEWMGWINPNSGTTGSAQRFQGRVTITVDTSITTVYMELSSLRSDDTAIYYCARGRELLRLQHFLTDSQSERRDCFDPWGQGTLVTVSS
VL: DIQMTQSPSSLSASVGDRVTITCRANQDIGIYLNWYQQNPGKVPKLLLHGASSLQGGVPSRFSASGSGTDFTLTIHSLQPEDLATYYCQQSRRLPYTFGQGTRVELK
With B8 the Trimeric HA Binding RLU [1] was 49800 RLU, the Trimeric HA Binding RLU [2] was 48800 RLU and the Trimeric HA Binding RLU [4] was 42000 RLU. It also gave a Trimeric HA Binding RLU [5] of 42800 RLU, a Trimeric HA Binding RLU [6] of 46400 RLU and a Trimeric HA Binding RLU [7] of 49300 RLU. It also gave a Trimeric HA Binding RLU [8] of 44800 RLU, a Trimeric HA Binding RLU [19] of 45600 RLU and a Trimeric HA Binding RLU [9] of 48800 RLU. It also gave a Trimeric HA Binding RLU [10] of 38200 RLU, a Trimeric HA Binding RLU [11] of 38400 RLU and a Trimeric HA Binding RLU [12] of 46800 RLU. For the same binder, the Trimeric HA Binding RLU [20] was 47500 RLU.
